From patent US20250388669A1 (published 2025) come the findings set out here.

For test [1], the target named is T1, PD-L1 (human, UniProt Q9NZQ7 19-238, limits assumed).
T1 construct: In the reporter assay it is on Raji cells expressing human PD-L1
Briefly: PD-L1 binding, FCM or ELISA.
T1 sequence (Q9NZQ7 19-238 limits assumed): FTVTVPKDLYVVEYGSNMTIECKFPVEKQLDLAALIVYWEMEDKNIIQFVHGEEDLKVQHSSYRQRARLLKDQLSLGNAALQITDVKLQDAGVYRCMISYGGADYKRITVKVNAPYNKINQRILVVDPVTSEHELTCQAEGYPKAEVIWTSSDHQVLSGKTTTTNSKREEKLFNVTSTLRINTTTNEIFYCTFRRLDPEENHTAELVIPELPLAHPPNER

Test [2] addresses T2, PD-L1 (human, UniProt Q9NZQ7 19-238, limits assumed).
T2 construct: The reporter assay used Raji cells expressing human PD-L1
Description: PD-L1 binding (FIG. 14A; method not specified); reference antibody.
T2 sequence (Q9NZQ7 19-238 limits assumed): as above

For a further test, the target named is CD40 (UniProt P25942 21-193, limits assumed). Briefly: FCM or ELISA, graded.
A further test deals with PD-L1 (binding assay) (UniProt Q9NZQ7 19-238, limits assumed). Briefly: FCM or ELISA, graded. Background: ELISA stands for enzyme-linked immunosorbent assay.
A further test has as its target CD137 (binding assay) (UniProt Q07011 24-186, limits assumed). Briefly: FCM or ELISA, graded.
A further test addresses PD-1 (binding assay) (UniProt Q15116 25-167, limits assumed). Briefly: FCM or ELISA, graded.

CD40, sequence (P25942 21-193 limits assumed): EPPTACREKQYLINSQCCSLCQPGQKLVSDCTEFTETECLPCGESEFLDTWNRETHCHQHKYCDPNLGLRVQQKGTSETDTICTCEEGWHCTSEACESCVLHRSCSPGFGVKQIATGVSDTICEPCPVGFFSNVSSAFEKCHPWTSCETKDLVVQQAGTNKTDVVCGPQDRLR
PD-L1 (binding assay), sequence (Q9NZQ7 19-238 limits assumed): as the sequence (Q9NZQ7 19-238 limits assumed) above
PD-1 (binding assay), sequence (Q15116 25-167 limits assumed): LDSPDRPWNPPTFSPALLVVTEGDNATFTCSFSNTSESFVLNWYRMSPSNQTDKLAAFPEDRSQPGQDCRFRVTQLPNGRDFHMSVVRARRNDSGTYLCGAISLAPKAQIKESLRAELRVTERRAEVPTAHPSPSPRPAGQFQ

B1: Ly076 (antibody, V domains shown)
VH: QVQLVQSGAEVKKPGASVKVSCKASGYTFTDFWMSWVRQAPGQGLEWMGQIYPNTGTTHSNEKFKGRVTMTRDTSTSTVYMELSSLRSEDTAVYYCARSYHISTTPNWFAYWGQGTLVTVSS
VL: DIQMTQSPSSLSASVGDRVTITCKASQNVYKKLEWYQQKPGKVPKVLIYHTNILQTGVPSRFSGSGSGTDYTLTISSLQPEDVATYYCYQWNSGPTFGGGTKVEIK
notes: Parent mAb; also called Anti-PD-L1 Ly076; parent anti-PD-L1 antibody
As to B1, the binding result with PD-L1 [1] is “binds”.

B2: Ly076 (antibody, V domains shown)
VH: B1 VH
VL: B1 VL
notes: Parent mAb; also called parent anti-PD-L1 antibody
For B2, the binding result with PD-L1 [2] is “binds”.

B3: Ly2438 (bispecific antibody)
heavy 1: QVQLVQSGAEVKKPGASVKVSCKASGYTFTDFWMSWVRQAPGQGLEWMGQIYPNTGTTHSNEKFKGRVTMTRDTSTSTVYMELSSLRSEDTAVYYCARSYHISTTPNWFAYWGQGTLVTVSSASTKGPSVFPLAPSSKSTSGGTAALGCLVKDYFPEPVTVSWNSGALTSGVHTFPAVLQSSGLYSLSSVVTVPSSSLGTQTYICNVNHKPSNTKVDKKVEPKSCGGGGSGGGGSGGGGSGGGGSEVQLVESGGGLVQPGGSLRLSCAASGFTFTNYGLHWVRQAPGKGLEWVSSISPSGGVTYYRDSVKGRFTISRDNSKNTLYLQMNSLRAEDTAVYYCAKPFLGWGGANWIAHWGQGTLVTVSSGGGGSDKTHTCPPCPAPEAAGPSVFLFPPKPKDTLMISRTPEVTCVVVDVSHEDPEVKFNWYVDGVEVHNAKTKPREEQYNSTYRVVSVLTVLHQDWLNGKEYKCKVSNKALPAPIEKTISKAKGQPREPQVYTLPPSREEMTKNQVSLWCLVKGFYPSDIAVEWESNGQPENNYKTTPPVLDSDGSFFLYSKLTVDKSRWQQGNVFSCSVMHEALHNHYTQKSLSLSPG
heavy 2: QVQLVQSGAEVKKPGASVKVSCKASGYTFTDFWMSWVRQAPGQGLEWMGQIYPNTGTTHSNEKFKGRVTMTRDTSTSTVYMELSSLRSEDTAVYYCARSYHISTTPNWFAYWGQGTLVTVSSASTKGPSVFPLAPSSKSTSGGTAALGCLVKDYFPEPVTVSWNSGALTSGVHTFPAVLQSSGLYSLSSVVTVPSSSLGTQTYICNVNHKPSNTKVDKKVEPKSCGGGGSGGGGSGGGGSGGGGSDIQMTQSPSSLSASVGDRVTITCLASEDISNDLAWYQQKPGKAPKLLIYFVDRLLDGVPSRFSGSGSGTDFTLTISSLQPEDFATYYCQQSYKYPPTFGQGTKLEIKGGGGSDKTHTCPPCPAPEAAGPSVFLFPPKPKDTLMISRTPEVTCVVVDVSHEDPEVKFNWYVDGVEVHNAKTKPREEQYNSTYRVVSVLTVLHQDWLNGKEYKCKVSNKALPAPIEKTISKAKGQPREPQVYTLPPSREEMTKNQVSLSCAVKGFYPSDIAVEWESNGQPENNYKTTPPVLDSDGSFFLVSKLTVDKSRWQQGNVFSCSVMHEALHNRFTQKSLSLSPG
light: DIQMTQSPSSLSASVGDRVTITCKASQNVYKKLEWYQQKPGKVPKVLIYHTNILQTGVPSRFSGSGSGTDYTLTISSLQPEDVATYYCYQWNSGPTFGGGTKVEIKRTVAAPSVFIFPPSDEQLKSGTASVVCLLNNFYPREAKVQWKVDNALQSGNSQESVTEQDSKDSTYSLSSTLTLSKADYEKHKVYACEVTHQGLSSPVTKSFNRGEC
notes: PD-L1 Fabs (Ly076) x central CD40 Fv (TM559)
On to B3, for which the binding result in the test with CD40 and with PD-L1 (binding assay) was “binds” throughout.

B4: Ly2444 (bispecific antibody, human IgG1, kappa)
heavy 1: QVQLVQSGAEVKKPGASVKVSCKASGYTFTDFWMSWVRQAPGQGLEWMGQIYPNTGTTHSNEKFKGRVTMTRDTSTSTVYMELSSLRSEDTAVYYCARSYHISTTPNWFAYWGQGTLVTVSSASTKGPSVFPLAPSSKSTSGGTAALGCLVKDYFPEPVTVSWNSGALTSGVHTFPAVLQSSGLYSLSSVVTVPSSSLGTQTYICNVNHKPSNTKVDKKVEPKSCDKTHTCPPCPAPEAAGPSVFLFPPKPKDTLMISRTPEVTCVVVDVSHEDPEVKFNWYVDGVEVHNAKTKPREEQYNSTYRVVSVLTVLHQDWLNGKEYKCKVSNKALPAPIEKTISKAKGQPREPQVYTLPPSREEMTKNQVSLWCLVKGFYPSDIAVEWESNGQPENNYKTTPPVLDSDGSFFLYSKLTVDKSRWQQGNVFSCSVMHEALHNHYTQKSLSLSPGGGGGSGGGGSGGGGSGGGGSEVQLVESGGGLVQPGGSLRLSCAASGFTFTNYGLHWVRQAPGKGLEWVSSISPSGGVTYYRDSVKGRFTISRDNSKNTLYLQMNSLRAEDTAVYYCAKPFLGWGGANWIAHWGQGTLVTVSS
heavy 2: QVQLVQSGAEVKKPGASVKVSCKASGYTFTDFWMSWVRQAPGQGLEWMGQIYPNTGTTHSNEKFKGRVTMTRDTSTSTVYMELSSLRSEDTAVYYCARSYHISTTPNWFAYWGQGTLVTVSSASTKGPSVFPLAPSSKSTSGGTAALGCLVKDYFPEPVTVSWNSGALTSGVHTFPAVLQSSGLYSLSSVVTVPSSSLGTQTYICNVNHKPSNTKVDKKVEPKSCDKTHTCPPCPAPEAAGPSVFLFPPKPKDTLMISRTPEVTCVVVDVSHEDPEVKFNWYVDGVEVHNAKTKPREEQYNSTYRVVSVLTVLHQDWLNGKEYKCKVSNKALPAPIEKTISKAKGQPREPQVYTLPPSREEMTKNQVSLSCAVKGFYPSDIAVEWESNGQPENNYKTTPPVLDSDGSFFLVSKLTVDKSRWQQGNVFSCSVMHEALHNRFTQKSLSLSPGGGGGSGGGGSGGGGSGGGGSDIQMTQSPSSLSASVGDRVTITCLASEDISNDLAWYQQKPGKAPKLLIYFVDRLLDGVPSRFSGSGSGTDFTLTISSLQPEDFATYYCQQSYKYPPTFGQGTKLEIK
light: B3 light
notes: PD-L1 Fabs (Ly076) x terminal CD40 Fv (TM559)
On to B4, for which the binding result in the test with CD40 and with PD-L1 (binding assay) was “binds” each time.

B5: Ly2396 (bispecific antibody, human IgG1, kappa)
heavy 1: QVTLKESGPALVKPTQTLTLTCTFSGFSLSTSGTCVSWIRQPPGKALEWLATICWEDSKGYNPSLKSRLTISKDTSKNQAVLTMTNMDPVDTATYYCARREDSGYFWFPYWGQGTLVTVSSASTKGPSVFPLAPSSKSTSGGTAALGCLVKDYFPEPVTVSWNSGALTSGVHTFPAVLQSSGLYSLSSVVTVPSSSLGTQTYICNVNHKPSNTKVDKKVEPKSCDKTHTCPPCPAPEAAGPSVFLFPPKPKDTLMISRTPEVTCVVVDVSHEDPEVKFNWYVDGVEVHNAKTKPREEQYNSTYRVVSVLTVLHQDWLNGKEYKCKVSNKALPAPIEKTISKAKGQPREPQVYTLPPSREEMTKNQVSLWCLVKGFYPSDIAVEWESNGQPENNYKTTPPVLDSDGSFFLYSKLTVDKSRWQQGNVFSCSVMHEALHNHYTQKSLSLSPGGGGGSGGGGSGGGGSGGGGSQVQLVQSGAEVKKPGASVKVSCKASGYTFAGFEMHWVRQAPGQGLEWMGAIDPKTGGTDYNQKFKDRVTMTRDTSISTAYMELSRLRSDDTAVYYCARDLGYFDVWGQGTLVTVSS
heavy 2: QVTLKESGPALVKPTQTLTLTCTFSGFSLSTSGTCVSWIRQPPGKALEWLATICWEDSKGYNPSLKSRLTISKDTSKNQAVLTMTNMDPVDTATYYCARREDSGYFWFPYWGQGTLVTVSSASTKGPSVFPLAPSSKSTSGGTAALGCLVKDYFPEPVTVSWNSGALTSGVHTFPAVLQSSGLYSLSSVVTVPSSSLGTQTYICNVNHKPSNTKVDKKVEPKSCDKTHTCPPCPAPEAAGPSVFLFPPKPKDTLMISRTPEVTCVVVDVSHEDPEVKFNWYVDGVEVHNAKTKPREEQYNSTYRVVSVLTVLHQDWLNGKEYKCKVSNKALPAPIEKTISKAKGQPREPQVYTLPPSREEMTKNQVSLSCAVKGFYPSDIAVEWESNGQPENNYKTTPPVLDSDGSFFLVSKLTVDKSRWQQGNVFSCSVMHEALHNRFTQKSLSLSPGGGGGSGGGGSGGGGSGGGGSDIQMTQSPSSLSASVGDRVTITCRASQDIRSNLNWYQQKPGGAVKLLIYYTSRLHSGVPSRFSGSGSGTDYTLTISSLQPEDFATYFCQQSEKLPRTFGGGTKVEIR
light: NIQMTQSPSSLSASVGDRVTITCKAGQNVNNYLAWYQQKPGKAPKVLIFNANSLQTGVPSRFSGSGSGTDFTLTISSLQPEDFATYYCQQYNSWPTFGGGTKVEIKRTVAAPSVFIFPPSDEQLKSGTASVVCLLNNFYPREAKVQWKVDNALQSGNSQESVTEQDSKDSTYSLSSTLTLSKADYEKHKVYACEVTHQGLSSPVTKSFNRGEC
notes: PD-1 Fabs (Ly516) x terminal CD137 Fv
On to B5, for which the binding result with CD137 (binding assay) and in the test with PD-1 (binding assay) was “binds” throughout.
